B1: FEM1A (parent)
chain: NIVEYLIQEQPGQEQVAGGEAQPG
B2: COX4I1 (parent)
chain: VAHVKHLSASQKALKEKEKASWSS

Variants of: B1
Test: protein stability index of a GFP-peptide fusion (GPS, HEK-293T) (PSI 1-6); higher = more stable
Settings: c terminus: a fixed tail appended
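Also: lentivirally expressed fusions sorted by FACS into six bins by GFP to DsRed ratio, PSI derived from sequencing read proportions per bin multiplied by bin number.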

Protein stability index of substitutions, site by site:
I2: P 5.54, N 5.41, H 5.49, R 5.59, M 4.15, A 5.21, C 5.17, K 5.27, T 5.57, Y 4.59, Q 5.6, D 5.12, L 4.29, F 4.24, E 5.63, V 5.13, G 5.39, S 5.54, W 2.59
N1: L 1.85, S 3.7, Q 3.89, R 3.19, C 2.79, W 2.71, I 3.26, M 2.16, V 2.76, Y 2.52, T 2.92, G 4.34, A 2.91, E 3.85, H 3.76, F 2.54, K 3.36, D 3.66, P 5.17
V3: C 5.04, E 5.36, A 5.13, D 5.67

Variants of: B2
Test: as above
Settings: c terminus: a fixed tail appended

Protein stability index of substitutions, site by site:
K15: M 3.94, E 4.08, Q 3.5, H 3.85, W 2.77, T 3.48, A 3.78, C 3.21, G 3.18, P 2.99, Y 3, N 3.77, V 3.2, I 3.82, R 3.33, D 3.96, L 3.29, S 4.04, F 3.21
A9: Q 3.01, S 3.59, R 3.7, V 3.09, Y 2.06, W 2.47, T 2.93
A13: G 3.3, R 2.69, P 3.8, C 3.37, W 2.08, V 3.09, I 2.75, T 3.27, Y 3.06, L 2.91, K 3.16, E 3.64, N 3.58, F 2.39, Q 2.63, H 3.17, S 3.2, D 3.82, M 2.95
A20: Q 2.57, K 3.48, G 3.25, H 3.23, S 3.16, M 2.39, V 3.21, C 3.28, T 3.25, P 3.36, R 3.65, F 3.13, I 2.76, L 2.86, W 2, D 3.27, N 3.05, E 1.71, Y 2.29
W22: H 4.48, Q 4.79, C 4.97, V 4.98, M 4.88, R 4.58, T 4.96, K 4.78, L 4.74, F 4.6, G 5.03, D 4.85, N 5.21, Y 4.29, A 5.14, S 5.08, P 5.12, I 4.38, E 5.33
L14: V 3.38, F 2.88, P 3.41, G 3.1, C 3.12, Y 3.09, I 3.46, H 3.61, T 2.89, R 3.7, N 3.98, K 3.65, S 3.05, Q 3.48, A 3.2, D 3.92, W 3.2, E 3.54, M 3.62
K12: M 2.77, E 3.52, N 3.13, W 2.69, A 2.61, T 3.32, R 3.07, S 3.64, F 2.92, D 3.88, L 3.32, G 2.65, V 3.77, I 2.71, Y 2.98, Q 3.86, H 2.84, C 2.33, P 3.58
S24: A 3.41, K 4.25, W 2.95, F 3.33, T 3.57, G 3.62, Q 3.94, P 4.36, C 3.31, Y 3.13, N 3.76, L 3.41, D 2.98, R 3.38, E 2.81, M 3.17, V 3.15, I 3.56, H 3.45
K17: M 3.01, Y 3.06, Q 3.53, N 3.81, H 3.26, E 3.9, P 3.32, S 3.23, V 2.95, F 3.31, G 3.86, C 2.83, A 3.62, R 3.49, L 2.71, W 2.35, I 2.83, D 3.92, T 3.21
E18: K 2.92, H 3.64, C 3.38, V 2.59, R 2.77, L 2.69, I 3.15, D 3.15, Q 4.05, F 2.51, N 2.98, S 3.02, M 2.13, T 2.87, Y 2.67, G 3.13, A 2.92, P 2.52, W 2.69
E16: S 2.64, N 3.05, P 2.75, T 2.93, D 3.48, V 2.03, C 2, Y 2.56, F 2.21, H 3.56, Q 2.72, A 3.67, G 2.38, L 2.36, W 2.31, I 2.54, R 2.8, K 3.17, M 2.46
S23: V 2.61, L 3.1, D 4.4, C 2.22, G 4.07, I 2.91, T 2.91, R 3.22, Q 2.81, M 3.77, K 3.74, N 4, H 3.68, A 1.82, P 4.06, Y 3.41, W 2.81, E 3.26, F 3.65
K19: D 3.85, G 3.52, R 3.71, C 2.79, M 2.7, V 3.03, A 3.86, Y 2.28, P 3.63, W 3.46, E 4.5, L 2.48, Q 3.02, N 3.4, S 3.52, H 2.89, I 3.21, T 3.17, F 2.64
Q11: C 3.21, K 2.99, I 2.94, R 2.83, Y 2.08, W 2.92, G 2.67, E 3.65, D 3.21, A 3.28, H 3.26, M 3.25, F 2.56, S 3.35, P 3.6, V 2.65, L 2.96, N 3.4, T 2.86
S10: D 4.01, V 2.94, L 2.58, T 2.56, K 2.66, E 3.95, R 3.16, I 2.37, A 2.88, C 1.97, P 3.39, M 2.94, Y 2.28, F 2.83, N 3.98, H 3.05, G 3.46, W 2.26, Q 3.12
S21: I 3.68, H 3.46, Q 4.07, Y 3.32, A 3.98, K 3.47, D 4.18, M 3.39, W 3.24, F 3.72, C 3.74, L 3.16, P 3.73, G 3.6, T 3.32, V 3.96, E 4.42, N 3.75, R 3.49

Source: the supplement of paper PMC10567573
